The supplement of paper PMC7877785
± gives the uncertainty stated by the source.

Assay: self-splicing fitness, log relative to wild type (ln ratio); higher = more splicing; Tetrahymena group I intron in knt gene, E. coli kanamycin selection, DiMSum; sequences stand for … in CUCUCU…GGAGGGAAAAGUUAUCAGGCAUGCACCUGGUAGCUAGUCUUUAAACCAAUAGAUUGCAUCGGUUUAAAAGGCAAGACCGUCAAAUUGCGGGAAAGGGGUCAACAGCCGUUCAGUACCAAGUCUCAGGGGAAACUUUGAGAUGGCCUUGCAAAGGGUAUGGUAAUAAGCUGACGGACAUGGUCCUAACCACGCAGCCAAGUCCUAAGUCAACAGAUCUUCUGUUGAUAUGGAUGCAGUUCACAGACUAAAUGUCGGUCGGGGAAGAUGUAUUCUUCUCAUAAGAUAUAGUCGGACCUCUCCUUAAUGGGAGCUAGCGGAUGAAGUGAUGCAACACUGGAGCCGCUGGGAACUAAUUUGUAUGCGAAAGUAUAUUGAUUAGUUUUGGAGUACUCGUGGUCG
In short: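 Colonies from six replicate transformations of E. coli BL21(DE3) were pooled and amplicon-sequenced on an Illumina HiSeq 2500. The library placed an intron with all eight P1ex-region nucleotides randomised inside the knt kanamycin-resistance gene on pET-22b(+), and cells grew overnight at 37°C or 30°C on LB agar with or without 25 μg/mL kanamycin (plus 100 μg/mL carbenicillin, 50 μM IPTG, 0.2% rhamnose). Fitness is the DiMSum error-weighted combination of wild-type-normalised replicate fold changes, kanamycin versus none.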

Sequence | self-splicing fitness (ln) (37 °C) | self-splicing fitness (ln) (30 °C)
AGAGAGCAAUAUUACGUAGG | -2.16 ± 0.43 | 
AGAGAGCAAUAUUACGUGGG | -2.71 ± 0.28 | -3.01 ± 0.17
AGAGAGCAAUAUUACGUGUG | -3.07 ± 0.24 | -3.84 ± 0.16
AGAGAGCAAUAUUACGUUGG | -2.76 ± 0.18 | -3.15 ± 0.14
AGAUAGCAAUAUUACGAACU | 0.533 ± 0.17 | -0.83 ± 0.16
AGAUAGCAAUAUUACGACAC | -0.486 ± 0.15 | -1.11 ± 0.12
AGAUAGCAAUAUUACGACUA | -0.165 ± 0.13 | -1.03 ± 0.14
AGAUAGCAAUAUUACGAGAU | -1.69 ± 0.27 | -3.02 ± 0.25
AGAUAGCAAUAUUACGAUGA | -0.349 ± 0.097 | -1.5 ± 0.13
AGAUAGCAAUAUUACGCACU | -0.664 ± 0.14 | -1.22 ± 0.1
AGAUAGCAAUAUUACGCAGA | -2.32 ± 0.2 | -2.95 ± 0.18
AGAUAGCAAUAUUACGCGGA | -0.482 ± 0.093 | -2.98 ± 0.13
AGAUAGCAAUAUUACGCGUU | -0.0669 ± 0.13 | -2.34 ± 0.14
AGAUAGCAAUAUUACGCUAU | -3.47 ± 0.24 | -3.58 ± 0.4
AGAUAGCAAUAUUACGGAGA | -2.76 ± 0.38 | -1.91 ± 0.18
AGAUAGCAAUAUUACGGAGC | -1.5 ± 0.28 | -3.24 ± 0.29
AGAUAGCAAUAUUACGGCCA | -0.323 ± 0.26 | 0.117 ± 0.33
AGAUAGCAAUAUUACGGGCC | -2.68 ± 0.36 | -1.68 ± 0.19
AGAUAGCAAUAUUACGGUAA | -1.34 ± 0.19 | -1.79 ± 0.2
AGAUAGCAAUAUUACGGUAC | -2.42 ± 0.22 | -3.91 ± 0.28
AGAUAGCAAUAUUACGGUCU | -2.8 ± 0.22 | -2 ± 0.17
AGAUAGCAAUAUUACGUAUC | -1.71 ± 0.18 | -2.64 ± 0.17
AGAUAGCAAUAUUACGUCCG | -0.122 ± 0.11 | 0.235 ± 0.1
AGAUAGCAAUAUUACGUGUC | -3.11 ± 0.27 | -3.36 ± 0.28

Sequence | self-splicing fitness (ln) (37 °C) | self-splicing fitness (ln) (30 °C)
AGAUAGCAAUAUUACGUUAA | -2.01 ± 0.18 | -2.88 ± 0.18
AGCAAGCAAUAUUACGAGUC | -1.84 ± 0.14 | -3.5 ± 0.16
AGCAAGCAAUAUUACGAUAA | 0.308 ± 0.11 | -2.16 ± 0.12
AGCAAGCAAUAUUACGAUCC | 1.31 ± 0.25 | -1.8 ± 0.18
AGCAAGCAAUAUUACGCACA | 0.365 ± 0.12 | -0.316 ± 0.082
AGCAAGCAAUAUUACGCAGC | -2.1 ± 0.35 | -2.98 ± 0.27
AGCAAGCAAUAUUACGCAUA | -1.06 ± 0.15 | -1.96 ± 0.14
AGCAAGCAAUAUUACGCGAC | -2.35 ± 0.26 | -2.95 ± 0.25
AGCAAGCAAUAUUACGCGAU | -0.149 ± 0.18 | -3.51 ± 0.37
AGCAAGCAAUAUUACGGACG | -0.244 ± 0.086 | -0.404 ± 0.061
AGCAAGCAAUAUUACGGAUG | -2.17 ± 0.17 | -2.27 ± 0.14
AGCAAGCAAUAUUACGGCUC | -3.41 ± 0.4 | -4.6 ± 0.27
AGCAAGCAAUAUUACGGUCA | 0.00074 ± 0.084 | -0.46 ± 0.07
AGCAAGCAAUAUUACGGUCC | -0.276 ± 0.081 | -0.25 ± 0.07
AGCAAGCAAUAUUACGUAGG | -2.1 ± 0.12 | -2.75 ± 0.1
AGCAAGCAAUAUUACGUCCG | -0.462 ± 0.14 | -0.909 ± 0.12
AGCAAGCAAUAUUACGUUAA | -1.68 ± 0.1 | -3.3 ± 0.17
AGCAAGCAAUAUUACGUUAC | -2.38 ± 0.21 | -3.47 ± 0.23
AGCAAGCAAUAUUACGUUAG | -2.24 ± 0.22 | -2.96 ± 0.17
AGCAAGCAAUAUUACGUUGG | -3.18 ± 0.17 | -4.16 ± 0.14
AGCCAGCAAUAUUACGAAGA | -1.46 ± 0.2 | -1.84 ± 0.26
AGCCAGCAAUAUUACGACCA | -2.81 ± 0.3 | -1.61 ± 0.14
AGCCAGCAAUAUUACGAGGA | -2.17 ± 0.27 | -3.35 ± 0.34
